In publication PMC8790125:

Molecular target: Rae1–Nup98_(GLEBS) complex, P78406
Test: ITC

Question: KPLTKKNYSELDDEEPMELDYP (modifications not checked) [SARS-CoV-1 Orf6CTT (22-mer peptide, residues 42–63 of SARS-CoV-1 Orf6)] was tested. Which Kd did it give?
Answer: Its Kd is 278 nM.

Question: And the stoichiometry N?
Answer: The stoichiometry N was 1.
